Measurements as given in patent US20030166162.

Key:
[1] = target: glutathione S transferase KLIP 11 chymosin pro-peptide cystatin fusion protein
[2] = target: T1, GST-wild type calf chymosin pro-peptide-cystatin fusion protein, P09229
T1 chain: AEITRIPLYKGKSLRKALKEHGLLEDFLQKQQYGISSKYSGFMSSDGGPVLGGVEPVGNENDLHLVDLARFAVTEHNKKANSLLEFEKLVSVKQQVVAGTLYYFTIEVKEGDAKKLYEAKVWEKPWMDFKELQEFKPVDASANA

[3] = target: glutathione S transferase KLIP 4 chymosin pro-peptide cystatin fusion protein
[4] = target: glutathione S transferase KLIP 15 chymosin pro-peptide cystatin fusion protein
[5] = target: glutathione S transferase KLIP 12 chymosin pro-peptide cystatin fusion protein
[6] = target: glutathione S transferase KLIP 14 chymosin pro-peptide cystatin fusion protein
[7] = target: glutathione S transferase KLIP 16 chymosin pro-peptide cystatin fusion protein

B1: calf chymosin (protein)
chain: GEVASVPLTNYLDSQYFGKIYLGTPPQEFTVLFDTGSSDFWVPSIYCKSNACKNHQRFDPRKSSTFQNLGKPLSIHYGTGSMQGILGYDTVTVSNIVDIQQTVGLSTQEPGDVFTYAEFDGILGMAYPSLASEYSIPVFDNMMNRHLVAQDLFSVYMDRNGQESMLTLGAIDPSYYTGSLHWVPVTVQQYWQFTVDSVTISGVVVACEGGCQAILDTGTSKLVGPSSDILNIQQAIGATQNQYGEFDIDCDNLSYMPTVVFEINGKMYPLTPSAYTSQDQGFCTSGFQSENHSQKWILGDVFIREYYSVFDRANNLVGLAKAI
% Cystatin accumulation following reaction, 0.5 hr @ 37 C [1]: 83% | % Cystatin accumulation following reaction, 1.0 hr @ 37 C [1]: 80.5% | % Cystatin accumulation following reaction, 2.0 hr @ 37 C [1]: 100% | % Cystatin accumulation following reaction, 16 hr @ RT [1]: 67.8% | % Cystatin accumulation following reaction, T = 0 [1]: 0% | % Cystatin accumulation following reaction, 16 hr @ RT; product with N-terminus MSSDGG [2]: 50% | % Cystatin accumulation following reaction, 16 hr @ RT; product with N-terminus SGFMSSDGG [2]: 50% | % Cystatin accumulation following reaction, T = 0 [2]: 0% | % Cystatin accumulation following reaction, 0.5 hr @ 37 C [3]: 100% | % Cystatin accumulation following reaction, 1.0 hr @ 37 C [3]: 100% | % Cystatin accumulation following reaction, 2.0 hr @ 37 C [3]: 100% | % Cystatin accumulation following reaction, 16 hr @ RT [3]: 87% | % Cystatin accumulation following reaction, T = 0 [3]: 0% | % Cystatin accumulation following reaction, 0.5 hr @ 37 C [4]: 40% | % Cystatin accumulation following reaction, 1.0 hr @ 37 C [4]: 57.8% | % Cystatin accumulation following reaction, 2.0 hr @ 37 C [4]: 77.8% | % Cystatin accumulation following reaction, 16 hr @ RT [4]: 85% | % Cystatin accumulation following reaction, T = 0 [4]: 0% | % Cystatin accumulation following reaction, 0.5 hr @ 37 C [5]: 84% | % Cystatin accumulation following reaction, 1.0 hr @ 37 C [5]: 99.4% | % Cystatin accumulation following reaction, 2.0 hr @ 37 C [5]: 87% | % Cystatin accumulation following reaction, 16 hr @ RT [5]: 64% | % Cystatin accumulation following reaction, T = 0 [5]: 0% | % Cystatin accumulation following reaction, 0.5 hr @ 37 C [6]: 72% | % Cystatin accumulation following reaction, 1.0 hr @ 37 C [6]: 87% | % Cystatin accumulation following reaction, 2.0 hr @ 37 C [6]: 99% | % Cystatin accumulation following reaction, 16 hr @ RT [6]: 70% | % Cystatin accumulation following reaction, T = 0 [6]: 0% | % Cystatin accumulation following reaction, 0.5 hr @ 37 C [7]: 0% | % Cystatin accumulation following reaction, 1.0 hr @ 37 C [7]: 0% | % Cystatin accumulation following reaction, 2.0 hr @ 37 C [7]: 0% | % Cystatin accumulation following reaction, 16 hr @ RT [7]: 0% | % Cystatin accumulation following reaction, T = 0 [7]: 0% | Scissile bond (N-terminal sequence) [7]: Uncleavable
